Test results: article PMC9293779, “Elucidation of binding preferences of YEATS domains to site-specific acetylated nucleosome core particles” (The Journal of Biological Chemistry, 2022)

Legend:
Experiment in all cases: ITC
[1] = biological target: T1, H3K14ac (1–19) peptide (Homo sapiens); conditions: domain or fragment; chains chain; modification not given; acetyl-Lys14 (mature histone numbering; entry K15); terminal caps or added residues not given
T1 chain: ARTKQTARKSTGGKAPRKQ

[2] = biological target: T2, H3K4ac (1–19) peptide (Homo sapiens); conditions: domain or fragment; chains chain; modification not given; acetyl-Lys4 (mature histone numbering; entry K5); terminal caps or added residues not given
T2 chain: ARTKQTARKSTGGKAPRKQ

[3] = biological target: Unmodified H3 (1–19) (Homo sapiens); conditions: domain or fragment; chains chain; modification not given

B1: AF9-YEATS domain (residues 1–138) for X-ray analysis and ITC, P42568 1-138 (protein)
chain: MASSCAVQVKLELGHRAQVRKKPTVEGFTHDWMVFVRGPEHSNIQHFVEKVVFHLHESFPRPKRVCKDPPYKVEESGYAGFILPIEVYFKNKEEPRKVRFDYDLFLHLEGHPPVNHLRCEKLTFNNPTEDFRRKLLKA
B1 showed a Kd [1] greater than 1000 µM, a Kd [2] of 320 µM and a Kd [3] greater than 1000 µM.
